Molecular target: purified catalytic subunit of cAMP-dependent protein kinase (PKA)
Assay: kinetic analysis of PKA phosphorylation of ARPP-21 at 0-15 uM phospho-Thr75 DARPP-32; Lineweaver-Burk and secondary plot, competitive inhibition

B1: phospho-Thr75 DARPP-32 (other)
chain: MDPKDRKKIQFSVPAPPSQLDPRQVEMIRRRRPTPAMLFRLSEHSSPEEEASPHQRASGEGHHLKSKRPNPCAYTPPSLKAVQRIAESHLQSISNLNENQASEEEDELGELRELGYPREEDEEEEEDDEEEEEEEDSQAEVLKVIRQSAGQKTTRGLGLEGPWERPPPLDESERDGGSEDQVEDPALSEPGEEPQRPSPSEPGR
B1 gave a Ki of 2.7 µM.
